Experimental findings from article PMC11796321 are described below.

The term Kd denotes a measure of binding affinity in units of concentration.

Test [1] deals with recombinant his-tagged soluble human IL-11R (human) (UniProt Q14626). The test can be described thus: SPR; Biacore X100, multi-cycle, NTA sensor chip; his-tagged soluble hIL-6R or hIL-11R immobilised (100-250 RU per cycle); cytokines injected 133.33 to 0.183 nM, 30 uL/min, 180 s, dissociation 800 s; 25 °C, PBS with 0.05% P20 and 50 uM EDTA; two-state reaction fit. In general terms: In SPR one partner is held on a chip, and binding of the other changes the refractive index at the surface.

In test [2] the target is recombinant his-tagged soluble human IL-6R (human) (UniProt P08887). The description is as above.
Sequence of recombinant his-tagged soluble human IL-6R (human) (P08887 20-365): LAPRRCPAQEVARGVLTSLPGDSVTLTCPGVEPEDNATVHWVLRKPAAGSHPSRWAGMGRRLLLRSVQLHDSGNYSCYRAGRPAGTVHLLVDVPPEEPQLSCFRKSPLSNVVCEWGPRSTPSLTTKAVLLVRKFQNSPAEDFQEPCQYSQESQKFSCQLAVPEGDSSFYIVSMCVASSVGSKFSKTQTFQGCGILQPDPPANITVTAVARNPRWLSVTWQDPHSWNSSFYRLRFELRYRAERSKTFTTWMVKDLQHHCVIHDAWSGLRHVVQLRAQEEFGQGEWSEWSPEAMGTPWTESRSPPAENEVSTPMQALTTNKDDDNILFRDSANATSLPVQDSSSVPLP

Sequence of chimeric cytokine IC7, Twin-Strep-tagged (IC7ts) (P05231 30-212, change not shown): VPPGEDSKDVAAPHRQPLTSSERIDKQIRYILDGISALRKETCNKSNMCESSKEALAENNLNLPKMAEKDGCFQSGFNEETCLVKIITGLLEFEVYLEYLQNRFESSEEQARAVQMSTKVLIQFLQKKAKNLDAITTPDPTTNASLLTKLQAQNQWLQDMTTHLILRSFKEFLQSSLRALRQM
Sequence of recombinant his-tagged soluble human IL-11R (human) (Q14626 24-370): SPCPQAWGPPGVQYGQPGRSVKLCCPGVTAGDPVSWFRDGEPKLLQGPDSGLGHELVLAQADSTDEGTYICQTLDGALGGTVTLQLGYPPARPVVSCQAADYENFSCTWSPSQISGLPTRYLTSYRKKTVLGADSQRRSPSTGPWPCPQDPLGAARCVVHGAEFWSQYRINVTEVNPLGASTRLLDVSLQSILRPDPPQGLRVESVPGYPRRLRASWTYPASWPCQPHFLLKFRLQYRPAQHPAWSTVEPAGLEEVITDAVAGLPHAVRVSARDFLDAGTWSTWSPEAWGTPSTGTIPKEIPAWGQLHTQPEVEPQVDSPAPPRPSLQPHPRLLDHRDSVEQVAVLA

For “chimeric cytokine IC7, Twin-Strep-tagged (IC7ts) (from UniProt P05231 30-212) (ligand)”, in test [1], the Kd amounted to 48.1 nM; the ka1 (two-state fit, first step) came to 59900 M⁻¹ s⁻¹; the ka2 (two-state fit, second step) was determined as 0.0104 s⁻¹; the kd1 (two-state fit, first step) was determined as 0.0193 s⁻¹. Further, the kd2 (two-state fit, second step) in test [1] amounted to 0.00183 s⁻¹. For the same substance, in test [2], the Kd came to 6.38 nM; the ka1 (two-state fit, first step) was 92200 M⁻¹ s⁻¹; the ka2 (two-state fit, second step) came to 0.00751 s⁻¹; the kd1 (two-state fit, first step) came out at 0.00932 s⁻¹. For the same substance, the kd2 (two-state fit, second step) in test [2] amounted to 0.000506 s⁻¹.
